Reference: US20050287518A1 (Scripps Research, published 2005)

Tests used:
[1] = molecular target: T1, Recombinant 6His-tagged RhoA pre-equilibrated with GTPγS (UniProt P61586 1-193, limits assumed); assay: fluorescence of the solvatochromic dye on mero-CBD, in vitro
T1 construct: also called RhoA-GTPγS; not shown: 6His tag
Procedure: (§1) Analyses of the solvatochromic activation indicator—A solution of mero-CBD (300 nM) in assay buffer was mixed 1:1 (v/v) with solutions of cdc42 (concentration as indicated), pre-equilibrated with 10 mM GDP or GTPγS as described in Knaus, U. G., Heyworth, P. G., Kinsella, B. T., Cumutte, J. T., and Bokoch, G. M. (1992) J. Biol. Chem. 267, 23575-23582. Emission wavelength of 630 nm and excitation wavelength of 600 nm were used to acquire excitation and emission spectra, respectively. For nucleotide dependence, cdc42 (500 nM) was pre-incubated with varying concentrations of GTPγS (1 to 500 nM). Rac1 and RhoA GTPases were pre-equilibrated with GTP […]S in the same manner.
(§2) Fluorescence increase as a measure of CBD-cdc42 interaction—The functionality and specificity of mero-CBD was characterized by measuring fluorescence in the presence of saturating amounts of cdc42-GDP or cdc42-GTPγS. […] Negligible increase (<5%) was also observed in the presence of activated Rac1. No effect on the mero-CBD fluorescence was observed when RhoA-GTPγS was present. Furthermore, even in the presence of excess of activated Rac1 and RhoA, GDP- and GTPγS-bound forms of cdc42 were easily distinguished by CBD-A4C fluorescence (data not shown).

[2] = molecular target: T2, Recombinant 6His-tagged cdc42 bound to GTPγS (UniProt P60953 1-191, limits assumed); assay: fluorescence of mero-CBD with saturating amounts of cdc42-GTPγS
T2 construct: Pre-equilibrated with GTPγS; also called cdc42-GTPγS; not shown: 6His tag
Procedure: as §1, §2

[3] = molecular target: T2, Recombinant 6His-tagged cdc42 bound to …; assay: fluorescence of the solvatochromic dye on CBD, comparison of three cysteine mutants (FIG. 15)
Procedure: as §1

T2 sequence (P60953 whole entry): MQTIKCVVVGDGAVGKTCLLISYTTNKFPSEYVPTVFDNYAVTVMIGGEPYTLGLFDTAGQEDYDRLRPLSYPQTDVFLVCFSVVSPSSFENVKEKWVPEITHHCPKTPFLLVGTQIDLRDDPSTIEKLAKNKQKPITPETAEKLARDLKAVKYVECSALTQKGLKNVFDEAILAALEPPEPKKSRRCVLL
T1 sequence (P61586 whole entry): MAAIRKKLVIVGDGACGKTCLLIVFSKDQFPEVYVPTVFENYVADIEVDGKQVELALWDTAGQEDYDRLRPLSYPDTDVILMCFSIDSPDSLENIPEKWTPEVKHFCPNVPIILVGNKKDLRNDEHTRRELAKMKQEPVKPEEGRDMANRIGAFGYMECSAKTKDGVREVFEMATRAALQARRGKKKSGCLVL

binding result [1]: no binding
fold increase in excitation and emission maxima [2]: ~3.5 fold
fold fluorescence change on binding [3]: ~3.5 fold
B1: mero-CBD-F271C conjugate (Cdc42-binding fragment of human WASP, amino acids 201 to 321, F271C, C-terminal 6His fusion, labeled with the merocyanine dye of FIG. … (other)
chain: DIQNPDITSSRYRGLPAPGPSPADKKRSGKKKISKADIGAPSGFKHVSHVGWDPQNGFDVNNLDPDLRSLCSRAGISEAQLTDAETSKLIYDFIEDQGGLEAVRQEMRRQEPLPPPPPPSHHHHHH
modifications: chain 1 pos 71 (WASP 271): Cys carrying the thiol-reactive merocyanine dye of FIG. 11, written C
notes: Dye-to-protein ratio 0.8 to 1.2 for single-dye conjugates; also called CBD biosensor; CBD-mero
